In the supplement of paper PMC9112550, “Optimization of the antimicrobial peptide Bac7 by deep mutational scanning” (BMC Biology, 2022):

Tested on: Escherichia coli TOP10
Assay: shrunken log2 fold change of peptide-encoding DNA abundance (4.5 h post-induction vs induction); higher = less antimicrobial activity (less host growth inhibition)
Details: time post-induction: 4.5 h; library: site-saturation at positions 5, 18, 19, 20
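Note: peptides expressed intracellularly from a pBAD plasmid library in pooled LB shake-flask culture, induced with 0.3% L-arabinose, DNA abundance read by NGS, three biological replicates, DESeq2 with apeglm shrinkage.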

| Sequence | shrunken log2 fold change |
| --- | --- |
| RRIRNRPPRLPRPRPRPWHCPRP | -0.116 |
| RRIRNRPPRLPRPRPRPWHSPRP | -0.496 |
| RRIRNRPPRLPRPRPRPWIIPRP | -0.429 |
| RRIRNRPPRLPRPRPRPWILPRP | -0.146 |
| RRIRNRPPRLPRPRPRPWKGPRP | -0.0198 |
| RRIRNRPPRLPRPRPRPWKLPRP | -0.0134 |
| RRIRNRPPRLPRPRPRPWLAPRP | -0.254 |
| RRIRNRPPRLPRPRPRPWLNPRP | -0.00264 |
| RRIRNRPPRLPRPRPRPWMCPRP | -1.23 |
| RRIRNRPPRLPRPRPRPWMDPRP | -0.165 |
| RRIRNRPPRLPRPRPRPWMPPRP | -0.105 |
| RRIRNRPPRLPRPRPRPWNGPRP | -0.368 |
| RRIRNRPPRLPRPRPRPWPVPRP | -0.153 |
| RRIRNRPPRLPRPRPRPWQCPRP | -0.108 |
| RRIRNRPPRLPRPRPRPWQDPRP | -0.112 |
| RRIRNRPPRLPRPRPRPWTDPRP | 0.0246 |
| RRIRNRPPRLPRPRPRPWTGPRP | -0.0655 |
| RRIRNRPPRLPRPRPRPWTTPRP | -0.0122 |
| RRIRNRPPRLPRPRPRPWVPPRP | -1.03 |
| RRIRNRPPRLPRPRPRPWYCPRP | -0.451 |
| RRIRNRPPRLPRPRPRPWYYPRP | -0.122 |
| RRIRNRPPRLPRPRPRPYAEPRP | -0.525 |
| RRIRNRPPRLPRPRPRPYDRPRP | -0.12 |
| RRIRNRPPRLPRPRPRPYECPRP | -0.177 |
| RRIRNRPPRLPRPRPRPYEEPRP | -0.277 |

| Sequence | shrunken log2 fold change |
| --- | --- |
| RRIRNRPPRLPRPRPRPYEKPRP | -0.0332 |
| RRIRNRPPRLPRPRPRPYETPRP | -0.0276 |
| RRIRNRPPRLPRPRPRPYFEPRP | -0.797 |
| RRIRNRPPRLPRPRPRPYGMPRP | -0.331 |
| RRIRNRPPRLPRPRPRPYHHPRP | -0.207 |
| RRIRNRPPRLPRPRPRPYHLPRP | 0.0195 |
| RRIRNRPPRLPRPRPRPYIEPRP | -0.275 |
| RRIRNRPPRLPRPRPRPYIKPRP | -1.03 |
| RRIRNRPPRLPRPRPRPYIRPRP | 0.00719 |
| RRIRNRPPRLPRPRPRPYKHPRP | -0.819 |
| RRIRNRPPRLPRPRPRPYLHPRP | -0.429 |
| RRIRNRPPRLPRPRPRPYLKPRP | -0.151 |
| RRIRNRPPRLPRPRPRPYMGPRP | -1.97 |
| RRIRNRPPRLPRPRPRPYMHPRP | -0.671 |
| RRIRNRPPRLPRPRPRPYMLPRP | -0.14 |
| RRIRNRPPRLPRPRPRPYNEPRP | -0.11 |
| RRIRNRPPRLPRPRPRPYPAPRP | 0.0741 |
| RRIRNRPPRLPRPRPRPYPGPRP | -0.123 |
| RRIRNRPPRLPRPRPRPYPRPRP | 0.0154 |
| RRIRNRPPRLPRPRPRPYTHPRP | -1.12 |
| RRIRNRPPRLPRPRPRPYVIPRP | -0.177 |
| RRIRNRPPRLPRPRPRPYVLPRP | 0.0201 |
| RRIRNRPPRLPRPRPRPYVWPRP | -0.135 |
| RRIRNRPPRLPRPRPRPYWCPRP | -0.00264 |
| RRIRNRPPRLPRPRPRPYWLPRP | -0.55 |

| Sequence | shrunken log2 fold change |
| --- | --- |
| RRIRPRPPRLPRPRPRPAAHPRP | 0.0385 |
| RRIRPRPPRLPRPRPRPAAIPRP | 0.0249 |
| RRIRPRPPRLPRPRPRPAAWPRP | 0.377 |
| RRIRPRPPRLPRPRPRPACFPRP | 0.45 |
| RRIRPRPPRLPRPRPRPACTPRP | 0.163 |
| RRIRPRPPRLPRPRPRPADKPRP | 0.0949 |
| RRIRPRPPRLPRPRPRPAETPRP | -0.0458 |
| RRIRPRPPRLPRPRPRPAFRPRP | 0.211 |
| RRIRPRPPRLPRPRPRPAGQPRP | -0.0709 |
| RRIRPRPPRLPRPRPRPAHHPRP | 0.207 |
| RRIRPRPPRLPRPRPRPAHNPRP | -0.114 |
| RRIRPRPPRLPRPRPRPAHWPRP | 0.484 |
| RRIRPRPPRLPRPRPRPAHYPRP | 0.02 |
| RRIRPRPPRLPRPRPRPAILPRP | -0.339 |
| RRIRPRPPRLPRPRPRPAKRPRP | 0.035 |
| RRIRPRPPRLPRPRPRPALDPRP | 0.628 |
| RRIRPRPPRLPRPRPRPALIPRP | -0.0205 |
| RRIRPRPPRLPRPRPRPAMGPRP | 0.332 |
| RRIRPRPPRLPRPRPRPANAPRP | 0.0662 |
| RRIRPRPPRLPRPRPRPANLPRP | -0.12 |
| RRIRPRPPRLPRPRPRPAPYPRP | -0.0601 |
| RRIRPRPPRLPRPRPRPAQCPRP | 0.148 |
| RRIRPRPPRLPRPRPRPAQSPRP | 0.448 |
| RRIRPRPPRLPRPRPRPARMPRP | 0.487 |
| RRIRPRPPRLPRPRPRPATEPRP | 0.0977 |

| Sequence | shrunken log2 fold change |
| --- | --- |
| RRIRPRPPRLPRPRPRPATMPRP | 0.0647 |
| RRIRPRPPRLPRPRPRPATWPRP | 0.253 |
| RRIRPRPPRLPRPRPRPAYIPRP | -0.518 |
| RRIRPRPPRLPRPRPRPCAAPRP | 0.888 |
| RRIRPRPPRLPRPRPRPCACPRP | -0.129 |
| RRIRPRPPRLPRPRPRPCATPRP | 0.132 |
| RRIRPRPPRLPRPRPRPCAWPRP | 0.0868 |
| RRIRPRPPRLPRPRPRPCDPPRP | -0.575 |
| RRIRPRPPRLPRPRPRPCETPRP | 0.0508 |
| RRIRPRPPRLPRPRPRPCFGPRP | 1.01 |
| RRIRPRPPRLPRPRPRPCFSPRP | -0.304 |
| RRIRPRPPRLPRPRPRPCFYPRP | -0.242 |
| RRIRPRPPRLPRPRPRPCGKPRP | 0.0102 |
| RRIRPRPPRLPRPRPRPCHCPRP | 0.153 |
| RRIRPRPPRLPRPRPRPCHMPRP | -0.0442 |
| RRIRPRPPRLPRPRPRPCHSPRP | -0.871 |
| RRIRPRPPRLPRPRPRPCKNPRP | -0.328 |
| RRIRPRPPRLPRPRPRPCKRPRP | -0.0941 |
| RRIRPRPPRLPRPRPRPCLQPRP | -0.631 |
| RRIRPRPPRLPRPRPRPCNQPRP | -0.0514 |
| RRIRPRPPRLPRPRPRPCPHPRP | -0.81 |
| RRIRPRPPRLPRPRPRPCPNPRP | -0.0908 |
| RRIRPRPPRLPRPRPRPCPSPRP | 0.0668 |
| RRIRPRPPRLPRPRPRPCPTPRP | 0.0557 |
| RRIRPRPPRLPRPRPRPCQRPRP | -0.144 |

| Sequence | shrunken log2 fold change |
| --- | --- |
| RRIRPRPPRLPRPRPRPCRKPRP | -0.134 |
| RRIRPRPPRLPRPRPRPCRLPRP | -0.29 |
| RRIRPRPPRLPRPRPRPCSNPRP | 0.137 |
| RRIRPRPPRLPRPRPRPCTAPRP | -0.109 |
| RRIRPRPPRLPRPRPRPCWCPRP | -0.0719 |
| RRIRPRPPRLPRPRPRPCWSPRP | 0.0606 |
| RRIRPRPPRLPRPRPRPCYDPRP | -0.165 |
| RRIRPRPPRLPRPRPRPDATPRP | 0.625 |
| RRIRPRPPRLPRPRPRPDCAPRP | 0.354 |
| RRIRPRPPRLPRPRPRPDEFPRP | -0.203 |
| RRIRPRPPRLPRPRPRPDFAPRP | 0.0996 |
| RRIRPRPPRLPRPRPRPDFGPRP | -0.19 |
| RRIRPRPPRLPRPRPRPDHMPRP | -0.33 |
| RRIRPRPPRLPRPRPRPDIVPRP | -0.0822 |
| RRIRPRPPRLPRPRPRPDIWPRP | 0.144 |
| RRIRPRPPRLPRPRPRPDKDPRP | -0.173 |
| RRIRPRPPRLPRPRPRPDMHPRP | -0.042 |
| RRIRPRPPRLPRPRPRPDMNPRP | -0.268 |
| RRIRPRPPRLPRPRPRPDPHPRP | 0.0782 |
| RRIRPRPPRLPRPRPRPDPRPRP | 0.649 |
| RRIRPRPPRLPRPRPRPDPWPRP | -0.0279 |
| RRIRPRPPRLPRPRPRPDRDPRP | -0.0875 |
| RRIRPRPPRLPRPRPRPDTWPRP | 0.0185 |
| RRIRPRPPRLPRPRPRPDVDPRP | 0.108 |
| RRIRPRPPRLPRPRPRPDVPPRP | -0.0575 |

| Sequence | shrunken log2 fold change |
| --- | --- |
| RRIRPRPPRLPRPRPRPDVRPRP | 1.79 |
| RRIRPRPPRLPRPRPRPDWAPRP | 0.0079 |
| RRIRPRPPRLPRPRPRPECCPRP | 0.526 |
| RRIRPRPPRLPRPRPRPECDPRP | 0.392 |
| RRIRPRPPRLPRPRPRPECTPRP | 0.0119 |
| RRIRPRPPRLPRPRPRPEFGPRP | 0.327 |
| RRIRPRPPRLPRPRPRPEHNPRP | -0.169 |
| RRIRPRPPRLPRPRPRPEIEPRP | 0.0922 |
| RRIRPRPPRLPRPRPRPEITPRP | 0.175 |
| RRIRPRPPRLPRPRPRPEKCPRP | 0.156 |
| RRIRPRPPRLPRPRPRPEKNPRP | 0.101 |
| RRIRPRPPRLPRPRPRPELAPRP | 0.643 |
| RRIRPRPPRLPRPRPRPEMDPRP | 0.116 |
| RRIRPRPPRLPRPRPRPENHPRP | -0.0822 |
| RRIRPRPPRLPRPRPRPEPAPRP | 0.572 |
| RRIRPRPPRLPRPRPRPEPMPRP | 0.542 |
| RRIRPRPPRLPRPRPRPERNPRP | -0.307 |
| RRIRPRPPRLPRPRPRPESDPRP | 0.235 |
| RRIRPRPPRLPRPRPRPESSPRP | 1.89 |
| RRIRPRPPRLPRPRPRPETIPRP | -0.157 |
| RRIRPRPPRLPRPRPRPETKPRP | 0.00908 |
| RRIRPRPPRLPRPRPRPETPPRP | 0.152 |
| RRIRPRPPRLPRPRPRPETSPRP | 0.328 |
| RRIRPRPPRLPRPRPRPEWHPRP | 1.23 |
| RRIRPRPPRLPRPRPRPEWKPRP | -0.00168 |
